Laboratory results taken from PMC10958106.

Molecular target: AP2 core GST (α2 trunk, β2 trunk and μ2 subunit) (UniProt O94973)
Assay: pull-down; AP2 core GST (or empty GST) bound to glutathione resin, incubated 3 h at 4 °C with extracts of HEK293 cells transfected with the receptor with or without HPV-16 E7; lysis buffer 50 mM HEPES pH 7.4, 150 mM NaCl, 1 mM MgCl2, 1% Triton X-100; Western blot

UniProt O94973, sequence (O94973 whole entry, chain 1 of 3): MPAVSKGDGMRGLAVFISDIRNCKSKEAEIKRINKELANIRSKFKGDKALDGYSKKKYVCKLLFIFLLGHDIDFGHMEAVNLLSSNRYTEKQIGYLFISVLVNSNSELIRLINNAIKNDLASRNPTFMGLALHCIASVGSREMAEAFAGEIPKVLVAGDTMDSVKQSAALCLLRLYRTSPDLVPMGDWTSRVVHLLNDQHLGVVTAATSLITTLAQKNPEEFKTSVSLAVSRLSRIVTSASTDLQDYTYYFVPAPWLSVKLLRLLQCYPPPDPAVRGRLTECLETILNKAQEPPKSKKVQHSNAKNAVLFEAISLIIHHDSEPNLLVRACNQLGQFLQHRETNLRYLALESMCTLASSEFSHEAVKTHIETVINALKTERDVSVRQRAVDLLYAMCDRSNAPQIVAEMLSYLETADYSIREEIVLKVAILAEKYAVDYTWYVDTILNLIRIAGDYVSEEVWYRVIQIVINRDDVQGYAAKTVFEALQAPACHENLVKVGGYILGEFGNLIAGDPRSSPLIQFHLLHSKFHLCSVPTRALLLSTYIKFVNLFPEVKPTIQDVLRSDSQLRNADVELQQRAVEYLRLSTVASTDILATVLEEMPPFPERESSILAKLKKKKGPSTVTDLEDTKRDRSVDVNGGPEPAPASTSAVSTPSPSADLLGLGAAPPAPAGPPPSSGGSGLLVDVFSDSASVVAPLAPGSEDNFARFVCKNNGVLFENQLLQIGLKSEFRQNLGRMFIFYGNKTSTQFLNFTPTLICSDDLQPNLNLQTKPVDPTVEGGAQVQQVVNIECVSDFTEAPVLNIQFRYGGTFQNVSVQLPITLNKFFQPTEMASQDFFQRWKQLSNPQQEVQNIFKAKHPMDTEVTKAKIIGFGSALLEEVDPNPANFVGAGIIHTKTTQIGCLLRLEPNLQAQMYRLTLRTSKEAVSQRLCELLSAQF
UniProt O94973, sequence (P63010 whole entry, chain 2 of 3, further chain): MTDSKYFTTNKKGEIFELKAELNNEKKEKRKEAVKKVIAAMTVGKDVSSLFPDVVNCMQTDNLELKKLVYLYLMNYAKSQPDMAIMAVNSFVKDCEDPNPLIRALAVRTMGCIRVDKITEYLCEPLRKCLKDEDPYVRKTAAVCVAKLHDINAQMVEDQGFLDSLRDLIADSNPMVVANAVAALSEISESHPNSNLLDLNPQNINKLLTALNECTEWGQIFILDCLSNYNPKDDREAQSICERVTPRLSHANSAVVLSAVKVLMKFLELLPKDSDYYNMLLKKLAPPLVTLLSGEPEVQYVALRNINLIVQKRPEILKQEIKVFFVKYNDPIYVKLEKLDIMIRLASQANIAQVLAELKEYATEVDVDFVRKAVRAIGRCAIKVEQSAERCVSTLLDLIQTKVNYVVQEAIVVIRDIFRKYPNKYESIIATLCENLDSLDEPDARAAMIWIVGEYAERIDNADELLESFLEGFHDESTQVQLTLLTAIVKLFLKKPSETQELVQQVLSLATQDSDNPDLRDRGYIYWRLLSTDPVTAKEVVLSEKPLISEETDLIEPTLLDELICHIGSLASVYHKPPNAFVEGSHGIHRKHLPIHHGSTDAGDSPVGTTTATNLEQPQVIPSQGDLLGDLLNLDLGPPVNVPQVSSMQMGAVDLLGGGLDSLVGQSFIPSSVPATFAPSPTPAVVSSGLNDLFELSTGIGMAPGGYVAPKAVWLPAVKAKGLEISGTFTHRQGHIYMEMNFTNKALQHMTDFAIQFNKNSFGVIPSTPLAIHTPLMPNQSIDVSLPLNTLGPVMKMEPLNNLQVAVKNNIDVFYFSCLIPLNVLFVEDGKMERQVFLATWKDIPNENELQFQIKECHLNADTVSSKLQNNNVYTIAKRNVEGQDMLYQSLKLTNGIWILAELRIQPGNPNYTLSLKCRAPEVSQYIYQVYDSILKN
UniProt O94973, sequence (Q96CW1 whole entry, chain 3 of 3, further chain): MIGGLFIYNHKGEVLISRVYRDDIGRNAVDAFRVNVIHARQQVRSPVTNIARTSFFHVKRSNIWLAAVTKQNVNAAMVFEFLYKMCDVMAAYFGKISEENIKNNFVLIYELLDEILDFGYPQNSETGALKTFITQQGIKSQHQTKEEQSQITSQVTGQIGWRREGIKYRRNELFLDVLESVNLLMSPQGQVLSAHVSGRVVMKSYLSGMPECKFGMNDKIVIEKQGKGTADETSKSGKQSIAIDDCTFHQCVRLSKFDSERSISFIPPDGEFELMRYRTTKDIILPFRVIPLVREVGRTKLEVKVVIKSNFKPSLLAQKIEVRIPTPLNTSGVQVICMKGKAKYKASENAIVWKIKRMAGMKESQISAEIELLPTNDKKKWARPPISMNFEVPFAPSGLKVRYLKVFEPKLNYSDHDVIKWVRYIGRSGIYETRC

Substance “HPV-16 E7-FLAG/HA (from UniProt P03129 1-98) (natural protein)” has a percent reduction of the binding of CD109 to the AP2 core in the presence of E7 of 50%, a percent reduction of the binding of EGFR to the AP2 core in the presence of E7 of over 70% and a percent reduction of the binding of MET to the AP2 core in the presence of E7 of 50%.
